Source: US20250277029A1 (Amgen, published 2025)
Positions count from the first letter of the chain named. In names and notes the source's numbering stands.

B1: LIBC527827-1 (antibody, V domains shown)
VH: QVQLQESGPGLVKPSQTLSLTCTVSGGSIRRGGDYWGWIRQHPGKGLEWIGHVYQSGQTAYNPKFENRATISVKTYKNQFSLKLSSVTAADTAVYYCARNYDTLTGHSYYYYGMDVWGQGTTVTVSS
VL: DIQMTQSPSTLSASVGDRVTITCRASQSISNYLNWYQQKPGKAPKLLIYAASSLHSGVPSRFSGSGSGTDFTLTISSLQPEDFASYYCQQYQSYPLTFGQGTKVEIKR
notes: also called LIBC527827-1 + VK1 germline fix(es)
B2: LIBC527984-1 (antibody, V domains shown)
VH: QVQLQESGPGLVKPSQTLSLTCTVSGGSIRRGGDYWSWIRQHPGKGLEWIGHIYQTGKTNYNPNFKSRATISVNTYKNQFSLKLSSVTAADTAVYYCARDYDILTGYSYYYYGMDVWGQGTTVTVSS
VL: B1 VL
notes: also called LIBC527984-1 + VK1 germline fix(es)
B3: LIBC527869-1 (antibody, V domains shown)
VH: B2 VH with S28N, S37A, Q55H, N64S, S67G, N74K, D100N, I103T, T105S, Y107N
VL: B1 VL with M4L
notes: also called LIBC527869-1 + VK1 germline fix(es)
B4: LIBC527906-1 (antibody, V domains shown)
VH: B2 VH with S37G, K58S, S67D, N74D
VL: B1 VL with M4L
notes: also called LIBC527906-1 + VK1 germline fix(es)
B5: LIBC527968-1 (antibody, V domains shown)
VH: B2 VH with T56S, K58S, N60K, N64S, S67D
VL: B1 VL with M4L
notes: also called LIBC527968-1 + VK1 germline fix(es)
B6: LIBC528169-1 (antibody, V domains shown)
VH: B2 VH with T56S, K58S, N60K, N64S, K66E, S67D
VL: B1 VL with M4L
notes: also called LIBC528169-1 + VK1 germline fix(es)
B7: LIBC528141-1 (antibody, V domains shown)
VH: B2 VH with I53V, K58S, N60K, N64R, S67G
VL: B1 VL with M4L
B8: LIBC528131-1 (antibody, V domains shown)
VH: B2 VH with K58Q, N60A, F65L, K66E, S67G
VL: EIVLTQSPATLSLSPGERATLSCRASQSVSSYLGWYQQKPGQAPRLLIYGASSRATGIPDRFSGSGSGTDFTLTISRLEPEDFAVYYCQQYGSSPRTFGQGTKVEIKR
notes: VK3 LC
B9: LIBC527912-1 (antibody, V domains shown)
VH: B2 VH with H52Y, K58Q, N60K, K66E, S67G
VL: B1 VL with M4L, T10S, N31S, H55R, S85T, Q92S, S93N, Q100G, K103R
B10: LIBC527879-1 (antibody, V domains shown)
VH: B2 VH with S37G, T56S, K58S, N64K, F65L, N74D, L104F
VL: B1 VL with M4L, T10S, S30I, N31S, H55R, S85T, Q92S, S93N, Q100G, K103R
B11: 10D10 HC D83K/LC N35Y (26970-1) (antibody, V domains shown)
VH: B2 VH with H52Y, Q55Y, T56S, K58S, N64S, F65L, N74K, Y76S
VL: not shown
notes: Earlier 10D10 variant used as benchmark

Molecular target: T1, empty-ND (nanodisc without CB1)
T1 construct: its only protein is the nanodisc scaffold; also called Empty Nanodisc
Test: flow cytometry, yeast-displayed IgG, binding/display ratio

Going from B1 to B2, the “50.0 nM Empty Nanodisc binding (relative to 10D10N35Y)” value falls from 1.16 fold to 0.61 fold.

Compared with B3, B4 is lower in “50.0 nM Empty Nanodisc binding (relative to 10D10N35Y)” value: 0.97 fold for the first, 0.51 fold for the second.

First: B5
Second: B6
The “50.0 nM Empty Nanodisc binding (relative to 10D10N35Y)” value of the first is lower: 0.64 fold for the first, 0.68 fold for the second.

Compared with B7, B8 is higher in “50.0 nM Empty Nanodisc binding (relative to 10D10N35Y)” value: 0.49 fold for the first, 0.63 fold for the second.

Compared with B9, B10 is higher in “50.0 nM Empty Nanodisc binding (relative to 10D10N35Y)” value: 0.51 fold for the first, 0.73 fold for the second.

Molecular target: T2, His-tagged huCB1-ND (human CB1 in nanodisc) (human)
T2 construct: CB1 construct of Cell 167(3) (2016) 750-762 expressed in Sf9 cells; POPC:MSP1D1:CB1 480:8:1; also called CB1-nanodisc; huCB1-Nanodisc; not shown: histidine purification tag
T2 sequence (P21554 99-414): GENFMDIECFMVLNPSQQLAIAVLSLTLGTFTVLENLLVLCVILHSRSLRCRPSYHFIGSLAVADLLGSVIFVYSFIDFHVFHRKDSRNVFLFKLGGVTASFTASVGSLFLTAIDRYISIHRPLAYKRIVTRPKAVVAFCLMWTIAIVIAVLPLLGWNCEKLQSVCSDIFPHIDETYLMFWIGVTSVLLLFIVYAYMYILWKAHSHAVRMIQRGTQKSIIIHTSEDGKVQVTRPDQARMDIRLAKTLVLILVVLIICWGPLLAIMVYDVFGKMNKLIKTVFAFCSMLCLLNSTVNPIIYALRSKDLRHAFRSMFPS
Test: as above

Going from B1 to B2, the “0.200 nM huCB1-Nanodisc binding (relative to 10D10N35Y)” value rises from 4.31 fold to 5.21 fold.

Going from B3 to B4, the “0.200 nM huCB1-Nanodisc binding (relative to 10D10N35Y)” value rises from 4.15 fold to 8.02 fold.

First: B5
Second: B6
The “0.200 nM huCB1-Nanodisc binding (relative to 10D10N35Y)” value of the first is higher: 4.86 fold for the first, 4.82 fold for the second.

Compared with B7, B8 is lower in “0.200 nM huCB1-Nanodisc binding (relative to 10D10N35Y)” value: 6.2 fold for the first, 4.47 fold for the second.

Compared with B9, B10 is lower in “0.200 nM huCB1-Nanodisc binding (relative to 10D10N35Y)” value: 5.95 fold for the first, 5.75 fold for the second.

Molecular target: T3, mouse CB1 (mouse, UniProt P47746 1-473)
T3 construct: also called muCB1; murine CB1
T3 sequence (P47746 whole entry): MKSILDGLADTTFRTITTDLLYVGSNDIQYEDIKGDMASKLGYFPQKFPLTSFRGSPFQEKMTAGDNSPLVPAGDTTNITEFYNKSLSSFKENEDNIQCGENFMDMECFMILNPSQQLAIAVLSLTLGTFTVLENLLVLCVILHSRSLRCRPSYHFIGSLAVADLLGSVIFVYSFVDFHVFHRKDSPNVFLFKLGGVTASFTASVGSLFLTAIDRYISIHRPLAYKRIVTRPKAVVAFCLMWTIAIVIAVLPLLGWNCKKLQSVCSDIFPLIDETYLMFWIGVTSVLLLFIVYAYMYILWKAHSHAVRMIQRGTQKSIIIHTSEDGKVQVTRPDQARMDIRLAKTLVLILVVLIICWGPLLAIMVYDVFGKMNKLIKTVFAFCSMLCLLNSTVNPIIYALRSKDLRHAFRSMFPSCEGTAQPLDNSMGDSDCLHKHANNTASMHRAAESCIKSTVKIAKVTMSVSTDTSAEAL
Test: fold over mock (Table 14)

B11: no binding.

Molecular target: T4, human cannabinoid receptor type 2 (CB2) (human, UniProt P34972 1-360)
T4 construct: also called huCB2; full length hu CB2
T4 sequence (P34972 whole entry): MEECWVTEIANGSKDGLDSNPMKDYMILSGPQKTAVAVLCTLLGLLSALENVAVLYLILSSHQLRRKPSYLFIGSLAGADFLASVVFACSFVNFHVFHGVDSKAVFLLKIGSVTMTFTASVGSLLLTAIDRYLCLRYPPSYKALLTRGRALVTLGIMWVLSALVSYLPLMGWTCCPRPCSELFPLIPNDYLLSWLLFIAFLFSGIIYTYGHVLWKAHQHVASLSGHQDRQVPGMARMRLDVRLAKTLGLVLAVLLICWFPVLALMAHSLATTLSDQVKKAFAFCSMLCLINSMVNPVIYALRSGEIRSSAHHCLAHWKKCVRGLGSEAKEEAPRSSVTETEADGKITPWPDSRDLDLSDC
Test: fold over mock (Table 14)

B11: no binding.

Molecular target: T5, GFP-fused huCB1-SMALP (human CB1 in styrene maleic acid lipoparticles) (human, UniProt P21554 1-472)
T5 construct: Prepared as in Luna V. et al. 2018; also called huCB1-GFP-SMALP; wtCB1-SMALP; not shown: GFP fusion
T5 sequence (P21554 whole entry, the tested form may be a part): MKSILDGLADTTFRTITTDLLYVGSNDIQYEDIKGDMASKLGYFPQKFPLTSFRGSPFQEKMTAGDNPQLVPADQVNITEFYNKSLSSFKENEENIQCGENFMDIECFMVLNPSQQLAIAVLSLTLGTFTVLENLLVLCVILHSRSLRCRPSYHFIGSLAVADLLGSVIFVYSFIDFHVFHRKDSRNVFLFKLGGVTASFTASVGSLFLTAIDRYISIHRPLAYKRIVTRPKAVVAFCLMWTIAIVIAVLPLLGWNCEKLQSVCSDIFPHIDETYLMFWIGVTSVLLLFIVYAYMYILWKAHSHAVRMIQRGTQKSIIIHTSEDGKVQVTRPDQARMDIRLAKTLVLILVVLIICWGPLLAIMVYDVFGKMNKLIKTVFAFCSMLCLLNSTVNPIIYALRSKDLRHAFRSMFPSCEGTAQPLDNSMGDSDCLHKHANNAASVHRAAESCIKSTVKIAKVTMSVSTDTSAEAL
Test: flow cytometry, yeast-displayed IgG, GFP MFI

First: B1
Second: B2
The “100 nM huCB1-GFP-SMALP binding (normalized to 10D10N35Y)” value of the first is higher: 4.99 fold for the first, 4.85 fold for the second.

Going from B3 to B4, the “100 nM huCB1-GFP-SMALP binding (normalized to 10D10N35Y)” value rises from 3.61 fold to 3.79 fold.

First: B5
Second: B6
The “100 nM huCB1-GFP-SMALP binding (normalized to 10D10N35Y)” value of the first is higher: 4.65 fold for the first, 4.58 fold for the second.

Going from B7 to B8, the “100 nM huCB1-GFP-SMALP binding (normalized to 10D10N35Y)” value falls from 8.31 fold to 3.68 fold.

Compared with B9, B10 is lower in “100 nM huCB1-GFP-SMALP binding (normalized to 10D10N35Y)” value: 4.32 fold for the first, 3.24 fold for the second.
